# Measurements as given in patent CN114276439A (YUDOLONG SUZHOU MEDICAL SCIENCE AND TECH LIMITED COMPANY, dated 2022).
# T1: HPV11 VLP (HPV11, UniProt P04012 1-501)
# T1 sequence: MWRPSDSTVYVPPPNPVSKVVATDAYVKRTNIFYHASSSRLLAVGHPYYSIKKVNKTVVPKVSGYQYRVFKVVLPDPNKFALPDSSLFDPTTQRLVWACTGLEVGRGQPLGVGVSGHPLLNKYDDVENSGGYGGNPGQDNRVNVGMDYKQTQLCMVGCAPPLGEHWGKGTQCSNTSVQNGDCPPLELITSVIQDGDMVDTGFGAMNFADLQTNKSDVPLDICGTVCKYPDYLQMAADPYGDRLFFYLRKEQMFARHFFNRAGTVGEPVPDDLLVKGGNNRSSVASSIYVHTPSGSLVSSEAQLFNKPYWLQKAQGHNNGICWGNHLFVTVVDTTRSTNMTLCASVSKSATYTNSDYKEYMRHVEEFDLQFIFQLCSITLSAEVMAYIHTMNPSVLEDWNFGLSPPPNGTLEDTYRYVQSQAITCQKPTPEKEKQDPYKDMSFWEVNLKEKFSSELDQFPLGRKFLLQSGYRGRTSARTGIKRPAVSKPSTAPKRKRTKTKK
# T2: HPV16假病毒 (HPV16, UniProt P03101 1-505)
# T2 sequence: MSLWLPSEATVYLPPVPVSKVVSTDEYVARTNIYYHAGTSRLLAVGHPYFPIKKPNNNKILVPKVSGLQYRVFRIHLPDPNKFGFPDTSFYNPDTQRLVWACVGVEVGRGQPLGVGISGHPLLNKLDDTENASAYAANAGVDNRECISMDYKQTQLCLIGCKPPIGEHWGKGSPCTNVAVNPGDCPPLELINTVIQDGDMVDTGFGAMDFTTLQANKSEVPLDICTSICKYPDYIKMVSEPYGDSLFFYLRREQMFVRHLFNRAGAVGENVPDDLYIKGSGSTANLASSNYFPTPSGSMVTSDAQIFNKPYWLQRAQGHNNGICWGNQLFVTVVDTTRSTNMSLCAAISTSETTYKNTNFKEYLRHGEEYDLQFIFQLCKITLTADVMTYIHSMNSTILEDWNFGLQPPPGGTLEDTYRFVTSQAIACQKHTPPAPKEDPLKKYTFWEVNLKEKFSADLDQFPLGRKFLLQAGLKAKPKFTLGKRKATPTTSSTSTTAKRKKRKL
# Experiments:
# [1] = target: T1, HPV11 VLP; test: indirect ELISA, VLP coated at 0.25 μg/ml
# [2] = target: T2, HPV16假病毒; test: cell-based or functional assay
binder,measurement,setting,value
"单克隆抗体50A11 (antibody, V domains shown, constant regions are not) VH: DVQLQESGPGLVKPSQSLSLTCTVTGYSITSYHAWNWIRQFPGNKLEWMAYINYSGKTSYNPSLKSRISITRDTSKNQFLLQLNSVTTEDTATYYCARVDWEGNYFDYWGQGTTVTVSS VL: DVLMTQTPLSLPVSLGDQASISCRSSQSILHSNGNTYLQWYLQKPGQSPNLLIYKVSNRFSGVPDRFSGSGSGTDFTLKISRVEAEDLGVYYCFQGSHVPPTFGGGTKLEIKR",binding result,[1],no binding
same,HPV16假病毒中和反应IC50,[2],1.35 ng/mL
